Laboratory results as given in article PMC3376577, “A Reusable Impedimetric Aptasensor for Detection of Thrombin Employing a Graphite-Epoxy Composite Electrode”.

Columns and labels:
[1] = target: serum albumin (UniProt P02768 25-609); assay: electrochemical impedance spectroscopy; albumin 5,000 mg/dL; Rct did not increase (slight decrease); PBS (187 mM NaCl, 2.7 mM KCl, 8.1 mM Na2HPO4, 1.76 mM KH2PO4, pH 7.0), room temperature; aptamer 1 uM adsorbed on graphite-epoxy electrode, PEG blocking; details: G-quadruplex (quadriplex)
[2] = target: thrombin (UniProt P00734;P00734 328-363;364-622); assay: electrochemical impedance spectroscopy; linear response 7.5-75 pM, detection limit 4.5 pM; PEG-blocked electrode, [Fe(CN)6]3-/4- probe; complex broken by 2.0 M NaCl at 42 C; PBS (187 mM NaCl, 2.7 mM KCl, 8.1 mM Na2HPO4, 1.76 mM KH2PO4, pH 7.0), room temperature; aptamer 1 uM adsorbed on graphite-epoxy electrode, PEG blocking

Chain of serum albumin (P02768 25-609): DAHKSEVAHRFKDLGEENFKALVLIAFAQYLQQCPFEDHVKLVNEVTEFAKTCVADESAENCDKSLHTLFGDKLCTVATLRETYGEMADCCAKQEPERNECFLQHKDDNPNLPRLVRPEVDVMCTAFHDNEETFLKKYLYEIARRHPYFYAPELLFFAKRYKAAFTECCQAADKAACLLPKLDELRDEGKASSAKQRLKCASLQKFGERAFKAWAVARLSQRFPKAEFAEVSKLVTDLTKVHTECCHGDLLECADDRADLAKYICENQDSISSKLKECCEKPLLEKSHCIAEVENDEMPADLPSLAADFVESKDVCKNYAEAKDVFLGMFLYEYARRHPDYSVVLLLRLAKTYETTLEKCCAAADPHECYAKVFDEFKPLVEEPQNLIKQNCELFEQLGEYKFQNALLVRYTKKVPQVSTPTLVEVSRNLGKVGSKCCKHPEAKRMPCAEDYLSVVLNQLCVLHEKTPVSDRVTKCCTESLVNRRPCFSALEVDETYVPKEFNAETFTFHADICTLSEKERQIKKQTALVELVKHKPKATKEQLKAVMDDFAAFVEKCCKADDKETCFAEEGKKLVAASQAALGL

B1: AptThr (structured_DNA)
DNA: GGTTGGTGTGGTTGG
B1: no binding [1]; binds [2].
